Data reported in patent US20210206841A1 (RESEARCH INSTITUTE AT NATIONWIDE CHILDREN S HOSPITAL, published 2021).
Residue numbers refer to the chain shown, from its start.

What was measured:
[1] = biological target: T1, tail-chimeric peptide IhfA3-IhfB2NTHI (nontypeable Haemophilus influenzae …); assay: direct ELISA #1, peptide coated (curves not reaching equilibrium)
T1 construct: also called IHF(NTHI) tail chimeric peptide; IHFNTHI tail chimeric peptide
T1 peptide: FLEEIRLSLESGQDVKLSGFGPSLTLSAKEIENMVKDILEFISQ

[2] = biological target: T1, tail-chimeric peptide IhfA3-IhfB2NTHI; assay: direct ELISA #2, peptide coated (curves reaching equilibrium)
[3] = biological target: T2, native IHFNTHI (integration host factor of nontypeable Haemophilus influenzae) (nontypeable Haemophilus influenzae …, UniProt P43723 1-96; P43724 1-94); assay: SPR Biacore 3000, HuMab immobilized, IHFNTHI as analyte
T2 construct: also called NTHI IHF
T2 sequence 1: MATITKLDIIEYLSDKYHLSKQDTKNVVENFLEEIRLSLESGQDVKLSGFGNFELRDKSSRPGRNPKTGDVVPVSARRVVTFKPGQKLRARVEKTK
T2 sequence 2: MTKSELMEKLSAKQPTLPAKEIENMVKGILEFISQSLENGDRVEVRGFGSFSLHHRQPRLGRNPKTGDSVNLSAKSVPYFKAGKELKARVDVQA

[4] = biological target: T1, tail-chimeric peptide IhfA3-IhfB2NTHI; assay: SPR Biacore 3000, peptide immobilized, HuMab as analyte
[5] = biological target: T1, tail-chimeric peptide IhfA3-IhfB2NTHI; assay: SPR Biacore 3000, HuMab immobilized, peptide as analyte
[6] = biological target: T3, tip-chimeric peptide IhfA5-mIhfB4NTHI (nontypeable Haemophilus influenzae …); assay: direct ELISA #1, peptide coated (curves not reaching equilibrium)
T3 construct: also called IHF(NTHI) tip chimeric peptide; IHFNTHI tip chimeric peptide
T3 peptide: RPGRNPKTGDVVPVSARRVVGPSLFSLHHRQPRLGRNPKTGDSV

[7] = biological target: T3, tip-chimeric peptide IhfA5-mIhfB4NTHI; assay: direct ELISA #2, peptide coated (curves reaching equilibrium)
[8] = biological target: T2, native IHFNTHI (integration host factor …); assay: SPR Biacore 3000, IHFNTHI immobilized, HuMab as analyte
[9] = biological target: T3, tip-chimeric peptide IhfA5-mIhfB4NTHI; assay: SPR Biacore 3000, HuMab immobilized, peptide as analyte
[10] = biological target: T3, tip-chimeric peptide IhfA5-mIhfB4NTHI; assay: SPR Biacore 3000, peptide immobilized, HuMab as analyte
[11] = biological target: T2, native IHFNTHI (integration host factor …); assay: SPR Biacore 3000, HuMab immobilized, IHFNTHI as analyte; remark: listed apart in the source
[12] = biological target: T3, tip-chimeric peptide IhfA5-mIhfB4NTHI; assay: direct binding ELISA: tip chimeric peptide coated at 2 ug/mL, antibody titrated 1:3 in 8 points, anti-human IgG Fc-HRP, absorbance at 450 nm [panel B]

B1: humanized anti-tail monoclonal antibody, heavy chain SEQ ID NO: 5 and light chain SEQ ID NO: 12 (antibody, V domains shown)
VH: EVQLVESGGGLVKPGGSLRLSCAASGFTFSRYGMSWVRQAPGKGLEWVSTISSGGSYTYYTDSVKGRFTISRDNAKNSLYLQMNSLRAEDTAVYYCERHGGDGYWYFDVWGQGTMVTVSS
VL: DIVMTQSPATLSLSPGERATLSCRASQDISNYLNWYQQKPGQAVRLLIYYTSRLHSGIPARFSGSGSGTDYTLTISSLEPEDFAVYFCQQGNPLRTFGGGTKVEIKR
notes: also called H10214 (11E7.C7 Humanized HC2) + L10215 (11E7.C7 Humanized LC3)
- EC50 [1]: 0.015 µg/mL
- EC50 [2]: 0.0429 µg/mL
- Kd [3]: 39 nM
- koff [3]: 0.0012 s⁻¹
- kon [3]: 33000 M⁻¹ s⁻¹
- Kd [4]: 9.1 nM
- koff [4]: 0.00077 s⁻¹
- kon [4]: 85000 M⁻¹ s⁻¹
- Kd [5]: 23 nM
- koff [5]: 0.00044 s⁻¹
- kon [5]: 20000 M⁻¹ s⁻¹

B2: humanized anti-tail monoclonal antibody, heavy chain SEQ ID NO: 6 and light chain SEQ ID NO: 12 (antibody, V domains shown)
VH: B1 VH with K13Q, G16R, A23T, S49A, S78I, R87K, A88T
VL: B1 VL
notes: also called H10215 (11E7.C7 Humanized HC3) + L10215 (11E7.C7 Humanized LC3)
- EC50 [1]: 0.008 µg/mL
- EC50 [2]: 0.0294 µg/mL
- Kd [3]: ~143 nM
- koff [3]: 0.0011 s⁻¹
- kon [3]: 7700 M⁻¹ s⁻¹
- Kd [4]: 2.4 nM
- koff [4]: 0.0006 s⁻¹
- kon [4]: 250000 M⁻¹ s⁻¹
- Kd [5]: 13 nM
- koff [5]: 0.0021 s⁻¹
- kon [5]: 160000 M⁻¹ s⁻¹

B3: humanized anti-tip monoclonal antibody, heavy chain SEQ ID NO: 3 and light chain SEQ ID NO: 8 (antibody, V domains shown)
VH: EVKLVQSGAEVKKPGASVKVSCKASGFTFRTYAMSWVRQAPGQRLEWVATIGSDRRHTYYPDKFQGRVTITRDNAKNTLYMELSSLRSEDTAVYYCVGPYDGYYGEFDYWGQGTLVTVSS
VL: DVVMTQSPLSLPVTLGQPASISCRSSQSLLDSDGKTFLNWLQQRPGQSPRRLIYLVSKRDSGVPDRFSGSGSGTDFTLKISRVEAEDVGVYYCWQGTHFPYTFGQGTKLEIKR
notes: also called H10212 (1F8.F1 Humanized HC3) + L10211 (1F8.F1 Humanized LC2)
- EC50 [6]: 0.066 µg/mL
- EC50 [7]: 0.0934 µg/mL
- Kd [8]: 115 nM
- koff [8]: 0.00021 s⁻¹
- kon [8]: 1800 M⁻¹ s⁻¹
- Kd [9]: 20 nM
- koff [9]: 0.0019 s⁻¹
- kon [9]: 95000 M⁻¹ s⁻¹
- Kd [10]: 7 nM
- koff [10]: 0.00035 s⁻¹
- kon [10]: 51000 M⁻¹ s⁻¹
- Kd [11]: 245 nM
- koff [11]: 0.0018 s⁻¹
- kon [11]: 7500 M⁻¹ s⁻¹
- EC50 [12]: 0.086 µg/mL
